# Measured values reported in the RNAGym collection of RNA variant scans (doi:10.7554/elife.80360).
# B1: CPEB3 Ribozyme (parent)
# chain: GGGGGCCACAGCAGAAGCGUUCACGUCGCGGCCCCUGUCAGAUUCUGGUGAAUCUGCGAAUUCUGCUGU
# Variants of: B1
# Test: self-cleavage, relative activity (ratio to wild type); higher = more cleavage; co-transcriptional
row,Variant,self-cleavage
1,GGGGGCCACAGCAGAAGCGUUCACGUCGCGGCCCCUGUUAGAUUCUGGUGAAUCUGCGAAUUCUGAUGU [C39U C66A],0.541
2,GGGGGCCACAGCAGAAGCGUUCACGUCGCGGCCCCUGUUCGAUUCUGGUGAAUCUGCGAAUUCUGCUGU [C39U A40C],0.756
3,GGGGGCCACAGCAGAAGCGUUCACGUCGCGGCCCCUGUUGGAUUCUGGUGAAUCUGCGAAUUCUGCUGU [C39U A40G],0.813
4,GGGGGCCACAGCAGAAGCGUUCACGUCGCGGCCCCUGUGAGAUUCUGGUGAAUCUGCGAAAUCUGCUGU [C39G U61A],0.703
5,GGGGGCCACAGCAGAAGCGUUCACGUCGCGGCCCCUGUGAGAUUCUGGUGAAUCUGCGAAGUCUGCUGU [C39G U61G],0.597
6,GGGGGCCACAGCAGAAGCGUUCACGUCGCGGCCCCUGUUAGAUUCUGGUGAAUCUGCAAAUUCUGCUGU [C39U G58A],0.873
7,GGGGGCCACAGCAGAAGCGUUCACGUCGCGGCCCCUGUGAGAUUCUGGAGAAUCUGCGAAUUCUGCUGU [C39G U49A],0.923
8,GGGGGCCACAGCAGAAGCGUUCACGUCGCGGCCCCUGUGAGAUUCUGGCGAAUCUGCGAAUUCUGCUGU [C39G U49C],0.875
9,GGGGGCCACAGCAGAAGCGUUCACGUCGCGGCCCCUGUUAGAUUCUCGUGAAUCUGCGAAUUCUGCUGU [C39U G47C],0.957
10,GGGGGCCACAGCAGAAGCGUUCACGUCGCGGCCCCUGUGAGAUUCUCGUGAAUCUGCGAAUUCUGCUGU [C39G G47C],0.986
11,GGGGGCCACAGCAGAAGCGUUCACGUCGCGGCCCCUGUGAGAUUCUUGUGAAUCUGCGAAUUCUGCUGU [C39G G47U],0.989
12,GGGGGCCACAGCAGAAGCGUUCACGUCGCGGCCCCUGUGAGAUUCUAGUGAAUCUGCGAAUUCUGCUGU [C39G G47A],0.996
13,GGGGGCCACAGCAGAAGCGUUCACGUCGCGGCCCCUGUUAGAUUCUGUUGAAUCUGCGAAUUCUGCUGU [C39U G48U],0.941
14,GGGGGCCACAGCAGAAGCGUUCACGUCGCGGCCCCUGUUAGAUUCUGAUGAAUCUGCGAAUUCUGCUGU [C39U G48A],0.998
15,GGGGGCCACAGCAGAAGCGUUCACGUCGCGGCCCCUGUGAGAUUCUGGUCAAUCUGCGAAUUCUGCUGU [C39G G50C],0.771
16,GGGGGCCACAGCAGAAGCGUUCACGUCGCGGCCCCUGUUAGAUUCUGGUGAAUCUGUGAAUUCUGCUGU [C39U C57U],0.37
17,GGGGGCCACAGCAGAAGCGUUCACGUCGCGGCCCCUGUGACAUUCUGGUGAAUCUGCGAAUUCUGCUGU [C39G G41C],0.351
18,GGGGGCCACAGCAGAAGCGUUCACGUCGCGGCCCCUGUGAUAUUCUGGUGAAUCUGCGAAUUCUGCUGU [C39G G41U],0.436
19,GGGGGCCACAGCAGAAGCGUUCACGUCGCGGCCCCUGUUAGAUUCUGGUGAAUCUCCGAAUUCUGCUGU [C39U G56C],0.887
20,GGGGGCCACAGCAGAAGCGUUCACGUCGCGGCCCCUGUUAGAUUCUGGUGAAUCUACGAAUUCUGCUGU [C39U G56A],1

row,Variant,self-cleavage
1,GGGGGCCACAGCAGAAGCGUUCACGUCGCGGCCCCUGUGAGAGUCUGGUGAAUCUGCGAAUUCUGCUGU [C39G U43G],0.448
2,GGGGGCCACAGCAGAAGCGUUCACGUCGCGGCCCCUGUGAGAAUCUGGUGAAUCUGCGAAUUCUGCUGU [C39G U43A],0.522
3,GGGGGCCACAGCAGAAGCGUUCACGUCGCGGCCCCUGUGAGAUUCUGGUGAAUCUGCGAAUUCUGCCGU [C39G U67C],0.93
4,GGGGGCCACAGCAGAAGCGUUCACGUCGCGGCCCCUGUGAGAUUCUGAUGAAUCUGCGAAUUCUGCUGU [C39G G48A],0.957
5,GGGGGCCACAGCAGAAGCGUUCACGUCGCGGCCCCUGUGAGAUUCUGUUGAAUCUGCGAAUUCUGCUGU [C39G G48U],0.966
6,GGGGGCCACAGCAGAAGCGUUCACGUCGCGGCCCCUGUGAGAUUCUGGUGAAUCAGCGAAUUCUGCUGU [C39G U55A],0.866
7,GGGGGCCACAGCAGAAGCGUUCACGUCGCGGCCCCUGUUAAAUUCUGGUGAAUCUGCGAAUUCUGCUGU [C39U G41A],0.475
8,GGGGGCCACAGCAGAAGCGUUCACGUCGCGGCCCCUGUUAUAUUCUGGUGAAUCUGCGAAUUCUGCUGU [C39U G41U],0.337
9,GGGGGCCACAGCAGAAGCGUUCACGUCGCGGCCCCUGUUAGAUUCUGGUGAAUCUGCGAAUUCUGCUGU [C39U],0.954
10,GGGGGCCACAGCAGAAGCGUUCACGUCGCGGCCCCUGUUAGAUUCUGGUGAAUCUGCGAAUUUUGCUGU [C39U C63U],0.84
11,GGGGGCCACAGCAGAAGCGUUCACGUCGCGGCCCCUGUUAGAUUCUGGUGAAUCUGCGAAUUGUGCUGU [C39U C63G],0.451
12,GGGGGCCACAGCAGAAGCGUUCACGUCGCGGCCCCUGUUAGAUUCUGGUGAAUCUGCGAAUUAUGCUGU [C39U C63A],0.54
13,GGGGGCCACAGCAGAAGCGUUCACGUCGCGGCCCCUGUGAGAUUCUGGUGAAGCUGCGAAUUCUGCUGU [C39G U53G],0.533
14,GGGGGCCACAGCAGAAGCGUUCACGUCGCGGCCCCUGUGAGAUUCUGGUGAAACUGCGAAUUCUGCUGU [C39G U53A],0.538
15,GGGGGCCACAGCAGAAGCGUUCACGUCGCGGCCCCUGUGAGAUUCUGGUGAACCUGCGAAUUCUGCUGU [C39G U53C],0.516
16,GGGGGCCACAGCAGAAGCGUUCACGUCGCGGCCCCUGUGAGAUUCUGGUGAAUCUGCGAAUUCUGGUGU [C39G C66G],0.566
17,GGGGGCCACAGCAGAAGCGUUCACGUCGCGGCCCCUGUGAGAUUCUGGUGAAUCUGCGAAUUCUGUUGU [C39G C66U],0.961
18,GGGGGCCACAGCAGAAGCGUUCACGUCGCGGCCCCUGUUAGAUUCUGGUUAAUCUGCGAAUUCUGCUGU [C39U G50U],0.895
19,GGGGGCCACAGCAGAAGCGUUCACGUCGCGGCCCCUGUUAGAUUCUGGUCAAUCUGCGAAUUCUGCUGU [C39U G50C],0.744
